The record followed here is patent US20230057847A1, “GLP2 RECEPTOR AGONISTS AND METHODS OF USE” (The Scripps Research Institute, priority 2019, published 2023).

Bridges are numbered along the chain shown (N, C = ends). Where no end group is shown, it is not given here. [ ]: non-standard residue; d: D form. Nle = CCCC[C@H](N)C(=O)O; Nva = CCC[C@H](N)C(=O)O; L5A = not defined here; A1 = not defined here; K1 = not defined here; K5 = not defined here; Aib = CC(C)(N)C(=O)O

T1: human GLP-2R (human, UniProt O95838 1-553)
T1 sequence (looked up): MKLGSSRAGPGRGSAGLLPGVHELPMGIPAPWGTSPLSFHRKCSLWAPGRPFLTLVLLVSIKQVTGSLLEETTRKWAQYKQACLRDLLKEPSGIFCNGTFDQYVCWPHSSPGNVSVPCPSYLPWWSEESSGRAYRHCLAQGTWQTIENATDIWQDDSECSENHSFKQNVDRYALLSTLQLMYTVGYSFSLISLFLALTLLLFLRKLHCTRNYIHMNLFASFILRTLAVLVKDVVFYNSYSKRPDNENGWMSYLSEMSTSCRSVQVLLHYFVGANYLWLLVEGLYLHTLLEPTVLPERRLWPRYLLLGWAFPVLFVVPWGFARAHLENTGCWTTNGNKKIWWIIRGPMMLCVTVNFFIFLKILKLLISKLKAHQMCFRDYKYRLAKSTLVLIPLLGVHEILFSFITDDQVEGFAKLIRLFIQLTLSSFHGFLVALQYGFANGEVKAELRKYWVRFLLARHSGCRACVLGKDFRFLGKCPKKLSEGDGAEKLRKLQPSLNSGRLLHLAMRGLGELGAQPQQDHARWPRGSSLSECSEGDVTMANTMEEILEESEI

B1: Conjugate 11: GLP2-2G-10Nle-1K-EX4 (SEQ ID NO. 10) with staple K5 at positions 17, 24 (peptide)
peptide: HGDGSFSDELNTILDNKAARDFIKWLIQTKITDPSSGAPPPS
modifications: not fully specified; here or on the partner: Nle at 10; staple K5 (lactam) attached at positions 17, 24 (lysines)

Sequence of mouse GLP2R (mouse) (Q5IXF8 whole entry): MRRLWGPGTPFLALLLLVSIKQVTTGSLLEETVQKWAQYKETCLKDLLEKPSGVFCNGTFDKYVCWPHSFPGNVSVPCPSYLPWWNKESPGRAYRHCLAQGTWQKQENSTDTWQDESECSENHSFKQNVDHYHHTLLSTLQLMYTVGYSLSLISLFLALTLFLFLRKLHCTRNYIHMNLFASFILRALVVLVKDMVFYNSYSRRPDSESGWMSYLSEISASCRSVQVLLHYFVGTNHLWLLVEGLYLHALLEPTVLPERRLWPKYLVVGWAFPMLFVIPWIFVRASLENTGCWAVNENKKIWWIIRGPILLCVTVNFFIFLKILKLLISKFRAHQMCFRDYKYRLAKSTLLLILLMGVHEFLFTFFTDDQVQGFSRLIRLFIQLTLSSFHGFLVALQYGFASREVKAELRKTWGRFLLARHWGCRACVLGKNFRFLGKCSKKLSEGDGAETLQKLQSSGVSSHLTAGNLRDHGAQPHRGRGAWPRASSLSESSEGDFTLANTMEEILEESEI

The first test concerns the target GIPR. Description: cell-based or functional assay.
Conditions: not given
On to GIP (ligand), for which the IC50 [nM] (665/615 ratio, free cAMP) amounted to 0.02 nM.

A further test addresses mouse GLP2R (mouse) (UniProt Q5IXF8). The test is described as follows: cell-based or functional assay.
Conditions: not given
As to Apraglutide (peptide), the IC50 [nM] (665/615 ratio, free cAMP) worked out at 0.04 nM.

The target of a further test is T1, human GLP-2R. The test is described as follows: cell-based or functional assay.
Conditions: not given
For HGDGSFSDEM[dF]TILDNKAARDFIKWLIQTKITDPSSGAPPPS (linker 17-24 via K5; reading uncertain) [Conjugate 18: GLP2-2G-11f-1K-EX4 (SEQ ID NO. 17) with staple K5 at positions 17, 24], the “GLP-2R - cAMP 0% FBS/nM (EC50, CRE-luciferase reporter)” value (“GLP-2R - cAMP 0% FBS/nM” for short) turned out to be 1.41 nM.

As for HGDGSFSDE[Aib]NTILDNCAARDFICWLIQTKITDPSSGAPPPS (linker 17-24 via L5A; reading uncertain) [Conjugate 5: GLP2-2G-10Aib-1-EX4 (SEQ ID NO. 5) with staple L5A at positions 17, 24], the “GLP-2R - cAMP 0% FBS/nM” value is 8.71 nM.

For the molecule HGDGSFSDE[Nle][dF]TILDNKAARDFIKWLIQTKITDPSSGAPPPS (bridge 17-24; not fully specified (bridges); ends not checked) [Conjugate 12: GLP2-2G-10Nle-11f-1K-EX4 (SEQ ID NO. 11) with staple K5 at positions 17, 24], the “GLP-2R - cAMP 0% FBS/nM” value came to 2.13 nM.

As to HGDGSFSDE[Nle]ATA[Nle]DAKAARDFIKWLIQTKITDPSSGAPPPS (linker 17-24 via K5; reading uncertain), the “GLP-2R - cAMP 0% FBS/nM” value was 1.33 nM.

As for HGDGSFSDE[Nle]NSLLDNKAARDFIKWLIQTKITDPSSGAPPPS (bridge 17-24; not fully specified (bridges); ends not checked) [Conjugate 13: GLP2-2G-10Nle-12S-13L-1K-EX4 (SEQ ID NO. 12) with staple K5 at positions 17, 24], the “GLP-2R - cAMP 0% FBS/nM” value worked out at 3.78 nM.

For HGDGSFSDE[Nle]NT[Nle][Nle]DNKAARDFIKWLIQTKITDPSSGAPPPS (linker 17-24 via K5; reading uncertain) [Conjugate 15: GLP2-2G-10Nle-13Nle-14Nle-1K-EX4 (SEQ ID NO. 14) with staple K5 at positions 17, 24], the “GLP-2R - cAMP 0% FBS/nM” value was 1.99 nM.

HGDGSFSDE[Nle]NTA[Nle]DNKAARDFIKWLIQTKITDPSSGAPPPS (linker 17-24 via K5; reading uncertain) [Conjugate 14: GLP2-2G-10Nle-13A-14Nle-1K-EX4 (SEQ ID NO. 13) with staple K5 at positions 17, 24]: the “GLP-2R - cAMP 0% FBS/nM” value came to 2.68 nM.

Turning to HGDGSFSDE[Nva]NTILDNCAARDFICWLIQTKITDPSSGAPPPS (linker 17-24 via L5A; reading uncertain) [Conjugate 6: GLP2-2G-10Nva-1-EX4 (SEQ ID NO. 6) with staple L5A at positions 17, 24], the “GLP-2R - cAMP 0% FBS/nM” value stood at 5.74 nM.

As for HGDGSFSDK[Nle]NTILDKLAARDFINWLIQTKITDPSSGAPPPS (linker 9-16 via K5; reading uncertain) [Conjugate 24: GLP2-2G-10Nle-5K-EX4 (SEQ ID NO. 19) with staple K5 at positions 9, 16], the “GLP-2R - cAMP 0% FBS/nM” value stood at 8.36 nM.

Take HGDGSFSDEMCTILDNLCARDFINWLIQTKITDPSSGAPPPS (linker 11-18 via L5A; ends not checked) [Conjugate 10: GLP2-2G-6-EX4 (SEQ ID NO. 9) with staple L5A at positions 11, 18]: the “GLP-2R - cAMP 0% FBS/nM” value stood at 2.09 nM and the “GLP-2R - cAMP 10% FBS/nM (EC50, CRE-luciferase reporter)” value amounted to 102 nM.

For HGDGSFSDEMNTILDNKAARDFIKWLIQTKITDPSSGAPPPS (bridge 17-24 via K1; ends not checked) [Conjugate 19: GLP2-2G-1K-EX4 (SEQ ID NO. 16) with staple K1 at positions 17, 24], the “GLP-2R - cAMP 0% FBS/nM” value was found to be 0.15 nM.

Consider HGDGSFSDEVNTILDNCAARDFICWLIQTKITDPSSGAPPPS (linker 17-24 via L5A; reading uncertain) [Conjugate 7: GLP2-2G-10V-1-EX4 (SEQ ID NO. 7) with staple L5A at positions 17, 24], for which the “GLP-2R - cAMP 0% FBS/nM” value worked out at 1.45 nM.

With HGDGSFSDEMNTILDNXAARDFIXWLIQTKITDPSSGAPPPS (Orn at 17 and 24; staple K5 attached at positions 17, 24 (ornithines)) [Conjugate 25: GLP2-2G-1Orn-EX4 (SEQ ID NO. 20) with staple K5 at positions 17, 24], the “GLP-2R - cAMP 0% FBS/nM” value stood at 2.11 nM.

HGDGSFSDEMNTILDNKAARDFIKWLIQTKITDPSSGAPPPS (bridge 17-24 via A1; ends not checked) [Conjugate 20: GLP2-2G-1K-EX4 (SEQ ID NO. 16) with staple A1 at positions 17, 24]: the “GLP-2R - cAMP 0% FBS/nM” value came out at 0.09 nM.

In the case of HGDGSFSDKMNTILDKLAARDFINWLIQTKITDPSSGAPPPS (bridge 9-16; not fully specified (bridges); ends not checked) [Conjugate 23: GLP2-2G-5K-EX4 (SEQ ID NO. 18) with staple K5 at positions 9, 16], the “GLP-2R - cAMP 0% FBS/nM” value was determined as 1.25 nM.

Consider HGDGSFSDELNTILDNCAARDFICWLIQTKITDPSSGAPPPS (linker 17-24 via L5A; reading uncertain) [Conjugate 3: GLP2-2G-10L-1-EX4 (SEQ ID NO. 3) with staple L5A at positions 17, 24], for which the “GLP-2R - cAMP 0% FBS/nM” value came to 0.87 nM.

With HGDGSFSDEMNTILDNKAARDFIKWLIQTKITDPSSGAPPPS (bridge 17-24; not fully specified (bridges); ends not checked) [Conjugate 17: GLP2-2G-1K-EX4 (SEQ ID NO. 16) with staple K5 at positions 17, 24], the “GLP-2R - cAMP 0% FBS/nM” value came to 1.07 nM.

A further test concerns the target 168 GPCR targets (gpcrMAX Panel by DiscoverRx). Description: cell-based or functional assay.
Conditions: not given
HGDGSFSDEMNTILDNCAARDFICWLIQTKITDPSSGAPPPS (linker 17-24 via L5A; not fully specified; ends not checked) [Conjugate 1: GLP2-2G-1-EX4 (SEQ ID NO. 1) with staple L5A at positions 17, 24] showed a PathHunter beta-arrestin enzyme fragment complementation, agonist mode, % activity of less than 30 % activity and a PathHunter beta-arrestin enzyme fragment complementation, antagonist mode, % inhibition of less than 35 % inhibition.

The molecule B1 displayed a PathHunter beta-arrestin enzyme fragment complementation, agonist mode, % activity of less than 30 % activity and a PathHunter beta-arrestin enzyme fragment complementation, antagonist mode, % inhibition of less than 35 % inhibition.

The test system of another test is mouse model of environmental enteric dysfunction (EED). Description: Weaning undernutrition mouse model of environmental enteric dysfunction (EED). The conditions noted are these: animals weaned to CD and to RBD diet, vs untreated. In kind it is in vivo, mice. As to the method: A weaning undernutrition model was used to assess the ability of GLP2-2G-10Nle-1K-EX4-K5 to treat environmental enteric dysfunction (EED). All dams were placed on an isocaloric Northeast Brazil (Regional Basic Diet—RBD), which was moderately deficient in protein, fat and minerals when their pups were 10 days old. At weaning (3 weeks of age), pups were placed on either a standard control diet (CD) or continued on RBD. At 4 weeks of age, weanlings were given drug or placebo (0.1 mg/kg formulated in PBS (vehicle)) once a day subcutaneously for 2-3 weeks. Bodyweight and food consumption were measured twice weekly. Stool was collected at weaning, 6 weeks of age, and 8 weeks of age for calorimetry and microbiome. Oral FITC-dextran was used as a measurement of barrier function. At 6 weeks of age, mice were euthanized, and jejunal tissue was collected for morphology, immunohistochemistry, and for chamber analysis of transmucosal resistance and permeability.
Turning to `CC[C@H](C)[C@H](NC(=O)[C@H](Cc1ccccc1)NC(=O)[C@H](CC(=O)O)NC(=O)[C@H](CCCNC(=N)N)NC(=O)[C@H](C)NC(=O)[C@H](C)NC(=O)[C@H](CC(C)C)NC(=O)[C@H](CC(N)=O)NC(=O)[C@H](CC(=O)O)NC(=O)[C@H](CC(C)C)NC(=O)[C@@H](NC(=O)[C@@H](NC(=O)[C@H](CC(N)=O)NC(=O)[C@H](CCSC)NC(=O)[C@H](CCC(=O)O)NC(=O)[C@H](CC(=O)O)NC(=O)[C@H](CO)NC(=O)[C@H](Cc1ccccc1)NC(=O)[C@H](CO)NC(=O)CNC(=O)[C@H](CC(=O)O)NC(=O)[C@H](C)NC(=O)[C@@H](N)Cc1c[nH]cn1)[C@@H](C)O)[C@@H](C)CC)C(=O)N[C@@H](CC(N)=O)C(=O)N[C@@H](Cc1c[nH]c2ccccc12)C(=O)N[C@@H](CC(C)C)C(=O)N[C@H](C(=O)N[C@@H](CCC(N)=O)C(=O)N[C@H](C(=O)N[C@@H](CCCCN)C(=O)N[C@H](C(=O)N[C@H](C(=O)N[C@@H](CC(=O)O)C(=O)O)[C@@H](C)O)[C@@H](C)CC)[C@@H](C)O)[C@@H](C)CC` [GLP-2, reference compound], the “length of the small intestine” value is listed as “significant increase”.
